This is an account of results in patent US20180362629A1 (ZOETIS BELGIUM S A, published 2018).

Experiment [1] addresses human β NGF (R&D Systems catalog #256-GF/CF) (human, UniProt P01138 122-241). Description: cell-based or functional assay.
The target in experiment [2] is T1, recombinant canine β NGF (canine, UniProt Q29074 110-229 (pig entry)).
T1 chain: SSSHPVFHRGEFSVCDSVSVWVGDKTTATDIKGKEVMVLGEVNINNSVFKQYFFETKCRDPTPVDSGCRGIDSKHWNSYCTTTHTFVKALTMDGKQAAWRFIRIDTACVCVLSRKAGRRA
The experiment is described as follows: cell-based or functional assay.

For experiment [3], the target named is T1, recombinant canine β NGF. The experiment is described as follows: cell-based or functional assay.
Experiment [4] addresses T1, recombinant canine β NGF. Description: direct ELISA, canine NGF coated at 1 µg/ml, mAb at 2 µg/ml. The method, then:
(§1) To determine if purified mouse anti-NGF mAbs bind to canine β NGF, ELISA plates were coated with 50 μl/well of canine NGF (Abbott Laboratories) at 1 μg/ml in PBS and incubated over night at 4° C. The plates were washed three times with PBS+Tween buffer. The plates were blocked with 200 μl/well of 2% milk in PBS for 1 hour at room temperature. The plates were washed three times as above. Purified antibodies were diluted to 0.4, 2, or 10 μg/ml. 50 μl of each concentration of purified antibody was added to the plates. The plates were incubated for 1 hour at room temperature. The plates were washed. 50 μl of a 5000-fold diluted goat anti-mouse IgG Fc-HRP (Thermo, catalog #31439) was added. The plates were incubated for 1 hour at room temperature. 50 μl of TMB (Invitrogen, catalog #00-2023) was added and the reaction was stopped using 2N H₂SO₄ (VWR, catalog # BDH3500-1). The absorbance at 450 nm was read on a Spectromax 2E plate reader (Molecular Devices). The results are shown in Table 9, and the numerical value indicates binding of mouse anti-NGF antibodies to canine β NGF.
For orientation: ELISA stands for enzyme-linked immunosorbent assay.

Experiment [5] addresses T1, recombinant canine β NGF. Description: direct ELISA, canine NGF coated at 1 µg/ml, mAb at 10 µg/ml. The method, then:
as §1

Experiment [6] deals with T1, recombinant canine β NGF. Description: direct ELISA, canine NGF coated at 1 µg/ml, mAb at 0.4 µg/ml. The method, then:
as §1

The target of experiment [7] is T1, recombinant canine β NGF. The experiment is described as follows: SPR (Biacore), mAb captured on goat anti-mouse IgG Fc, canine NGF injected; Expt 1. As to the method:
(§2) A biomolecular protein interaction analysis was used to evaluate the binding kinetics of the interaction between the purified anti-NGF hybridoma antibodies and recombinant canine β NGF. The antibodies were captured using a goat anti-mouse IgG FC (10000 RU) surface which was directly immobilized to a CM5 chip using an amine coupling procedure according to the manufacturer's instructions (Biacore). A sample size of 5 μl of antibody at a concentration of 1 μg/ml was captured at 10 μl minute. Recombinant canine NGF was used as the antigen. Canine NGF was injected at 75 μl/min (concentration range: 5-0.039 nM) for mouse antibodies. The association rate was monitored for 3.3 minutes and the dissociation rate was monitored for 10 minutes. Aliquots of canine NGF were also simultaneously injected over a reference reaction CM surface to record any nonspecific binding background. The instrument sensitivity for on-rate is I×IO⁷, such that any on-rate that is faster than I×IO⁷ may not be accurately measured; the instrument sensitivity for off-rate is […], such that any off-rate that is slower than 1×10⁻⁶ may not be accurately measured. Therefore, an on-rate that is faster than 1×10⁷ is recorded as >1×10⁷ and an off-rate that is slower than 1×10⁻⁶ is recorded as <1×10⁻⁶.
On the technique in general: SPR reads the build-up and loss of mass on a sensor chip optically.

The target in experiment [8] is T1, recombinant canine β NGF. Description: SPR (Biacore), mAb captured on goat anti-mouse IgG Fc, canine NGF injected; Expt 2. The method, then: as §2
Experiment [9] deals with T1, recombinant canine β NGF. The experiment is described as follows: SPR (Biacore), mAb captured on goat anti-mouse IgG Fc, canine NGF injected; Average. The method, then: as §2
For experiment [10], the target named is T1, recombinant canine β NGF. The experiment is described as follows: SPR (Biacore), mAb captured on goat anti-mouse IgG Fc, canine NGF injected; Expt 1; Expt 1. The method, then: as §2
Experiment [11] has as its target T1, recombinant canine β NGF. The experiment is described as follows: SPR (Biacore), mAb captured on goat anti-mouse IgG Fc, canine NGF injected; Average; Average. As to the method: as §2
For experiment [12], the target named is T1, recombinant canine β NGF. Description: cell-based or functional assay.
Experiment [13] concerns the target T1, recombinant canine β NGF. Description: SPR (Biacore T100), antibody captured on goat anti-canine IgG, canine NGF injected; Expt 1. As to the method: (§3) Purified mouse/canine chimeric antibodies and caninized antibodies were analyzed for affinity to canine NGF using a Biacore T100 instrument. Goat anti Canine IgG (Southern Biotech) was immobilized at 5000-10000 RU on a CM5 chip using an amine coupling procedure according to the manufacturer's instructions (Biacore). […] The association rate was monitored for 5 min and the dissociation rate was monitored for 10-20 min. The chip surface was regenerated using 50-75 ul 10 mM glycine pH 1.5 at a flow rate of 50-100 ul/min. Data was analyzed using Biaevaluation T100 software version 2.0.2, software, GE Healthcare Life Sciences (Piscataway, N.J.). Overall affinity parameters established for mouse/canine chimeric antibodies is summarized in Table 22 and for caninized antibodies in Table 23. […] The overall KDs of the mouse/canine anti-NGF mAbs range from about 1300 pM to 1.6 pM. […] The overall KDs of the caninized anti-NGF mAbs range from about 42 pM to 1.2 pM.

The target in experiment [14] is T1, recombinant canine β NGF. Description: SPR (Biacore T100), antibody captured on goat anti-canine IgG, canine NGF injected; Expt 2. As to the method:
as §3

For experiment [15], the target named is T1, recombinant canine β NGF. Description: SPR (Biacore T100), antibody captured on goat anti-canine IgG, canine NGF injected; Average. As to the method:
as §3

For experiment [16], the target named is T1, recombinant canine β NGF. The experiment is described as follows: SPR (Biacore T100), antibody captured on goat anti-canine IgG, canine NGF injected; Expt 1; Expt 1. As to the method:
as §3

Read-outs that look alike come from different tables or passages of the source.

human β NGF (R&D Systems catalog #256-GF/CF), sequence (P01138 122-241 limits assumed): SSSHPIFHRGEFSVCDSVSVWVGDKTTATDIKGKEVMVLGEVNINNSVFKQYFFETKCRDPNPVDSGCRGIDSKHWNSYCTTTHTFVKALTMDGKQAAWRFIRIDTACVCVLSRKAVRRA

B1: PR-1254980 (antibody, mouse IgG1, V domains shown)
VH: EVQLQQSGAELVKPGASVKLSCTASGFNIKDTYIYWVKQRPEQGLEWIGRIDPANGNTIYASKFQGKATITADTSSNTAYMQLSSLTSGDTAVYYCAGYGYYAYWGQGTTLTVSS
VL: DVVLTQTPLSLPVNIGDQASISCKSTKSLLNGDGFTYLDWYLQKPGQSPQLLIYLVSNRFSGVPDRFSGSGSGTDFTLKISRVEAEDLGVYYCFESNYLFTFGSGTKLEMKR
notes: also called 23F1; ML129-23F1.4G3
For orientation: Kd means the free concentration of one partner at which half of the binding sites on the other are occupied at equilibrium, for simple one-to-one binding. What is called koff is the first-order rate constant of dissociation. As usually defined, the kon is a measure of how fast the partners come together. On to B1, for which the “PathHunter % of max signal, supernatant 100-fold” value in experiment [1] turned out to be 5%. Moreover, the “IC50, canine NGF-induced TF-1 cell proliferation (70 pM canine NGF)” value (shortened to “IC50 … (70 pM canine NGF)”) in experiment [2] stood at 0.343 nM. In addition, the “PathHunter IC50 (441 pM canine NGF)” value in experiment [3] stood at 0.381 nM. Further, the “SureFire pERK IC50 (128 pM canine β NGF)” value in experiment [3] turned out to be 13.7 pM. The “absorbance at 450 nm” value in experiment [4] stood at 0.334 A450; in [5], 0.491 A450; in experiment [6] it was 0.168 A450. Further, the equilibrium dissociation constant (Kd) in experiment [7] was below 23.7 pM; in experiment [8], below 22.5 pM; in experiment [9], below 23.1 pM. Further, the koff came to 0.000237 s⁻¹ in [7], 0.000225 s⁻¹ in experiment [8] and 0.000231 s⁻¹ in experiment [9]. In addition, the on-rate (kon) in experiment [7], in experiment [8] and in experiment [9] was above 1e+07 M⁻¹ s⁻¹ in each case.

B2: PR-1254982 (antibody, mouse IgG1, V domains shown)
VH: QVQLKESGPGLVAPSQSLSITCTVSGFSLTGYNINWVRQPPGKGLEWLGMIWGYGDTDYNSALKSRLSISKDNSKSQVFLKMNSLQTDDTARYYCARDHYGGNDWYFDVWGTGTTVTVSS
VL: DIQMTQTTSSLSASLGDRVTITCRASQDITNYLNWYQQKPDGTVKLLIYYTSRLHSGVPSRFSGSGSGTDYSLTISNLDQEDIATYFCQQGKTLPRTFGGGTKLEIKR
notes: also called 3F7; ML130-3F7.4A8
With B2, the “IC50 … (70 pM canine NGF)” value in [2] came to 25 pM. The “PathHunter IC50 (441 pM canine NGF)” value in experiment [3] turned out to be 0.15 nM. The “SureFire pERK IC50 (128 pM canine β NGF)” value in [3] stood at 5.8 pM. Further, the “absorbance at 450 nm” value in [4] is 0.142 A450; in [5] it was 0.208 A450; in experiment [6], 0.095 A450. Also, the Kd in experiment [7], in experiment [8] and in experiment [9] was below 0.1 pM throughout. The on-rate constant (kon) in [7], in experiment [8] and in experiment [9] was above 1e+07 M⁻¹ s⁻¹ each time. Further, the koff in [8], in experiment [10] and in experiment [11] was below 1e-06 s⁻¹ throughout.

B3: 82.3 Canine IgG1/k (antibody, V domains shown)
VH: EVQLQESGPGLVKPSQTLSLTCTVSGFSLTGYNINWVRQRPDRGLEWLGMIWGYGDTDYNSALKSRLSISKDNTKSQVFLQLTSTTTEDTAVYYCARDHYGGNDWYFDVWGQGTLVTVSS
VL: DIQMTQTPLSLSASPGESASITCRASQDITNYLNWYRQKPGQSVKLLIYYTSRLHSGVPSRFSGSGSGTDYSLRISRVEDEDAGLYFCQQGKTLPRTFGQGTKLEIKR
notes: The variable/constant junction was not checked; also called PR-1313519; PR-13113519
As for B3, in experiment [12], the “IC50 … (70 pM canine NGF)” value was 17 pM. For the same molecule, the values for the equilibrium dissociation constant (Kd) in experiment [13], in [14] and in experiment [15] were 2.4 pM, 1.6 pM and 2 pM, respectively. Also, the kon in [13] was determined as 8.2e+06 M⁻¹ s⁻¹; in experiment [14] it was 8.5e+06 M⁻¹ s⁻¹; in experiment [15] it was 8.4e+06 M⁻¹ s⁻¹. Further, the koff in [14] is 1.3e-05 s⁻¹; in [15], 1.7e-05 s⁻¹; in experiment [16], 2e-05 s⁻¹.
